By Kd is commonly meant the equilibrium constant for the complex coming apart. A lower Kd goes with tighter binding.

Read-outs that look alike come from different tables or passages of the source.

Common to all, as to assay: ITC
A general note: ITC needs no label: the signal is the heat of the interaction.

In experiment [1] the target is T1, SARS-CoV-2 spike protein receptor binding domain, wild-type (SARS-CoV-2, UniProt P0DTC2).
Experiment [2] concerns the target T1, SARS-CoV-2 spike protein receptor …. The source holds these as a separate data set.
For experiment [3] the target is unchanged. This is another data set of the same source.
Experiment [4] has the same target. The source holds these as a separate data set.

B1: LY-CoV555 single chain variable fragment (scFv, V domains shown)
VH: QVQLVQSGAEVKKPGSSVKVSCKASGGTFSNYAISWVRQAPGQGLEWMGRIIPILGIANYAQKFQGRVTITADKSTSTAYMELSSLRSEDTAVYYCARGYYEARHYYYYYAMDVWGQGTAVTVSS
VL: not shown
In the case of B1, the Kd in experiment [1] came out at 3.8 ± 1.9 nM; in experiment [2], 3.9 ± 1.9 nM.

B2: REGN10987 single chain variable fragment (scFv, V domains shown)
VH: QVQLVESGGGVVQPGRSLRLSCAASGFTFSNYAMYWVRQAPGKGLEWVAVISYDGSNKYYADSVKGRFTISRDNSKNTLYLQMNSLRTEDTAVYYCASGSDYGDYLLVYWGQGTLVTVSS
VL: QSALTQPASVSGSPGQSITISCTGTSSDVGGYNYVSWYQQHPGKAPKLMIYDVSKRPSGVSNRFSGSKSGNTASLTISGLQSEDEADYYCNSLTSISTWVFGGGTKLTVL
With B2, in experiment [3], the Kd was 34.3 ± 8.1 nM.

B3: LY-CoV016 single chain variable fragment (scFv, V domains shown)
VH: EVQLVESGGGLVQPGGSLRLSCAASGFTVSSNYMSWVRQAPGKGLEWVSVIYSGGSTFYADSVKGRFTISRDNSMNTLFLQMNSLRAEDTAVYYCARVLPMYGDYLDYWGQGTLVTVSS
VL: not shown
B3: in experiment [4], binding was characterised by a dissociation constant (Kd) of 49.3 ± 10.1 nM and the dH was -11.7 ± 0.1 kcal/mol.
